Read-outs that look alike come from different tables or passages of the source. Marks after values point to notes of the source that are not given here.
Details: pig, in vivo
Description: Serum concentrations of total ADC, total antibody and Free Payload (unconjugated SN38) were determined in three separate assays conducted by PPD.
A 20.0-μL sample aliquot was diluted 10-fold. A portion of the diluted sample was taken and processed using an immunoaffinity approach. SMART Digest IA magnetic beads coated with anti-human Fc antibody were used to enrich Trodelvy from matrix. The bound proteins were subjected to “on-bead” proteolysis with trypsin. […] After trypsin digestion, the proteins were further subjected to acidic conditions to release SN-38 from the antibody, which was used for Total ADC quantitation. The following sequences in Table 49 were selected for monitoring in the assay:
VVSV was used for the quantitation of Total Antibody concentrations, DSTY was used for the quantitation of Intact Antibody (trouble shooting purposes only), and SN-38 was used for quantitating Total ADC concentrations.
A nominal unconjugated SN-38, concentration range of […] was chosen to quantitate samples. This assay requires a 50.0 μL porcine serum aliquot. Samples were kept frozen at −80° C. prior to analysis.
A matrix aliquot was fortified with internal standard. Analytes were isolated through protein precipitation. The eluate was evaporated under a nitrogen stream, and the remaining residue reconstituted. Final extracts were analyzed via HPLC MS/MS detection using positive ion electrospray.
Therefore, nominal time points were used for PK analyses. To estimate the serum concentration at time zero for intravenous (IV) data, a second-order polynomial regression was applied to the early serum time points (0.25, 1, and 2 hours). The intercept of the fitted polynomial curve was used as the extrapolated concentration at time zero. Skin concentration data (μg/mL) was normalized to total protein (mg/mL) per sample, resulting in values represented as μg/mg protein.
Pharmacokinetic parameters were calculated using noncompartmental methods performed in Microsoft Excel. The area under the concentration-time curve (AUC) was determined using the linear trapezoidal rule. For serum data, AUC0-7 was calculated using all available time points. For skin data, AUC1-7 was computed based on the three available time point measurements. The maximum observed concentration (Cmax) was identified directly from the dataset, and the time at which it occurred (Tmax) was recorded. All calculations were performed using Microsoft Excel.
Quantitation of total antibody, total ADC, and free payload (SN-38) from Trodelvy in porcine serum and tissue samples was performed via HPLC with MS/MS detection.

## Sacituzumab govitecan [Trodelvy]
  Relative difference in serum AUC0-7, Free Payload: 59%
  Relative difference in serum AUC0-7, TAB: 76%
  Relative difference in serum AUC0-7, TADC: 34%
  Relative difference in serum Cmax, Free Payload: 38%
  Relative difference in serum Cmax, TAB: 44%
  Relative difference in serum Cmax, TADC: 13%
50 mg
  TADC/Free Payload, Tmax: 100%
  TADC/TAB, Tmax: 33%
iv
  AUC0-7 of free payload: 0.1252 µg·days/mL
  AUC0-7 of total ADC (TADC): 41.44 µg·days/mL
  AUC0-7 of total antibody (TAB): 193.05 µg·days/mL
  Cmax of free payload: 95.3 ng/mL
  Cmax of total ADC (TADC): 60550 ng/mL
  Cmax of total antibody (TAB): 57600 ng/mL
  Tmax of free payload: 0 h
  Tmax of total ADC (TADC): 0 h
  Tmax of total antibody (TAB): 0 h
iv, 50 mg, 6 h
  Total ADC Result: 43.9 µg/mL
iv, 50 mg, 24 h
  Total ADC Result: 10 µg/mL
iv, 50 mg, 48 h
  Total ADC Result: 2.27 µg/mL
iv, 50 mg, 72 h
  Total ADC Result: 0.751 µg/mL
iv, 50 mg, 96 h
  Total ADC Result: <0.500 µg/mL
iv, 50 mg, 168 h
  Total ADC Result: 0.1 µg/mL
iv, 6 h
  serum concentration of total ADC (TADC): 43.90 µg/mL
iv, 24 h
  serum concentration of total ADC (TADC): 10.00 µg/mL
iv, 48 h
  serum concentration of total ADC (TADC): 2.27 µg/mL
iv, 72 h
  serum concentration of total ADC (TADC): 0.75 µg/mL
iv, 96 h
  serum concentration of total ADC (TADC): <0.50^b μg/mL
iv, 168 h
  serum concentration of total ADC (TADC): 0.10 µg/mL
sc
  Tmax of free payload: 24 h
sc, 0 h
  serum concentration of total ADC (TADC): <0.10^b μg/mL
sc, 6 h
  serum concentration of total ADC (TADC): 4.96 µg/mL
sc, 24 h
  serum concentration of total ADC (TADC): 7.87 µg/mL
sc, 48 h
  serum concentration of total ADC (TADC): 2.77 µg/mL
sc, 72 h
  serum concentration of total ADC (TADC): 1.00 µg/mL
sc, 168 h
  serum concentration of total ADC (TADC): 0.13 µg/mL

Reference: patent publication US20260069707A1, “COMBINATION THERAPY WITH ANTIBODY-DRUG CONJUGATES AND HYALURONIDASES” (HALOZYME, INC., priority 2024, published 2026)
